Results reported in patent publication US20170137490A1, “PEPTIDES, AND METHODS AND APPARATUS UTILISING SAME” (The University of Manchester, priority 2014, published 2017).

Columns and labels:
[1] = target: T1, N-C3 (Homo sapiens, UniProt Q13018); test: SPR kinetics of patient sera autoantibodies over immobilized N-C3; settings: patient autoantibodies in sera binding to immobilized N-C3
T1 construct: the N-terminus to and including CTLD3 (N-C3); no tag is printed; made in house; host or cells: HEK 293-EBNA1
Protocol: Quantitation of serum antibody concentrations was performed on the Proteon XPR-36 (Bio-Rad) SPR instrument where the initial binding rates of purified human anti-PLA2R binding to N-C3 were used as standard curve to determine the concentration of anti-PLA2R in the unknown serum samples.

[2] = system: human anti-PLA2R autoantibodies; test: Western blotting of PLA2R fragments with human anti-PLA2R autoantibodies; assay type: binding
[3] = system: anti-PLA2R autoantibodies in patient sera; test: N-C3 inhibition ELISA (autoantibody binding to N-C8); set-up: species or system human; settings: N-C3 9.0 μg ml-1; 43 PLA2R-positive sera
Protocol: The ELISA method was a variation on the standard assay previously described. Briefly, PLA2R (N-C8) at 125 ng ml-1 was coated onto ELISA plates overnight and plates blocked with Superblock (Thermo Scientific). 50 μl of 1:100 dilution of patient serum plus 50 μl of either buffer or NC-3 fragment to give a final concentration in the well of 9.0 μg ml-1, 0.9 μg ml-1, 0.09 μg ml-1 and 0.009 μg ml-1 were preincubated for 2 hours at room temperature before adding to the ELISA plate for a further 2 hours with shaking. Following extensive washing, anti-human IgG-HRP at 1:25,000 dilution in assay buffer was added to all wells for 2 hour incubation. Following washing, the plate was developed by adding substrate and the reaction terminated at 5 minutes by addition of 1 M H2SO4. Plates were read at 450 nm and inhibition curves constructed. The concentration of 9.0 μg ml-1 was used to compare the inhibition profile of 43 different sera previous reported as anti-PLA2R positive.

[4] = Hydrodynamic radius from QELS; assay type: physicochemical; settings: pH 7.4
[5] = Sedimentation velocity (analytical ultracentrifugation); assay type: physicochemical; settings: for Frictional ratio (f/f0): from Mass derived from MALLS
Protocol: The experiments were performed using double sector cells and a rotor speed of 74,500 g for N-C8 and 116,500 g for N-C3, taking 150 scans at 1.5 minutes intervals at a wavelength of 280 nm and at a temperature of 20° C. The sedimenting boundaries were analyzed using the program Sedfit v8.7.

[6] = system: purified anti-PLA2R antibody; settings: pH 6.2 (tight) vs pH 7.2 (extended)
[7] = Dual polarisation interferometry, pH dependent conformational change; assay type: physicochemical; settings: pH range 5.0 to 7.2 screened; thickness of protein layer
Protocol: Dual polarisation interferometry was used to provide quantitative information on the thickness, the refractive index and density of the immobilized PLA2R layer with the capability to measure conformational change in real time. The DPI experiments were performed on a Farfield AnaLight instrument. […] N-C8 and N-C3 were regenerated between the different pHs with running buffer pH 7.2. Analysis of the raw data and determination of density, thickness and mass per unit area was achieved using the AnaLight® Bio200 analysis software (Farfield Scientific).

T1 sequence (Q13018 21-643 limits assumed): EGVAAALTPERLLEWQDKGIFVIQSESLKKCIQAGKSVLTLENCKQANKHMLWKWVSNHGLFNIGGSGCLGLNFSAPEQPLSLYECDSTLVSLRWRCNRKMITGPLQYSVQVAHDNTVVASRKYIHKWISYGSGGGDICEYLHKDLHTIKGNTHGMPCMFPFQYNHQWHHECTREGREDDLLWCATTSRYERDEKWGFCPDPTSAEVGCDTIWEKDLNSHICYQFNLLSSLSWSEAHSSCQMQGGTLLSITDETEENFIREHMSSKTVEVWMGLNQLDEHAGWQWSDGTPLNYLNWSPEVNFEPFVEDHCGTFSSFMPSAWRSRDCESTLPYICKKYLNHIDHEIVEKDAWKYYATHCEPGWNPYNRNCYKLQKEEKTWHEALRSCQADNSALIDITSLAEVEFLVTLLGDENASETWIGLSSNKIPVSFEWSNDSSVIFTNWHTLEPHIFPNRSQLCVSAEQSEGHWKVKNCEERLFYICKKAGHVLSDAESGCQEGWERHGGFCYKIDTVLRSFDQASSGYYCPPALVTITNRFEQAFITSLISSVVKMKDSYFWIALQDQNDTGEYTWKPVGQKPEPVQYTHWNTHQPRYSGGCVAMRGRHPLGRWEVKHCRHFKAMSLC

Substance	Kd [1] [nM]	recognition by human anti-PLA2R autoantibodies [2]	Hydrodynamic radius [4] [nm]	Sedimentation coefficient (S20, w) ([5]; pH 6.2)	sedimentation coefficient ([5]; pH 6.2) [s]	Frictional ratio (f/f0) ([5]; pH 6.2)	sedimentation coefficient ([5]; pH 7.2) [s]	Sedimentation coefficient (S20, w) ([5]; pH 7.4)	Frictional ratio (f/f0) ([5]; pH 7.4)	also measured
EDDLLWCATTSR [compound 3, Fibronectin type II domain peptide]	0.043	–	–	–	–	–	–	–	–	–
N-C2: recombinant PLA2R fragment, the N-terminus to and including CTLD2	–	neither N-C2 nor C3 fragments were recognized	–	–	–	–	–	–	–	–
N-C3: recombinant PLA2R fragment, the N-terminus to and including CTLD3	–	recognized	3.81 ± 0.23	5.35 ± 0.10	5.3	1.39	5.3	5.29 ± 0.09	1.38	patient sera in which binding of autoantibodies to N-C8 was effectively competed [3]: approximately 90%
N-C8: recombinant full length extracellular PLA2R	–	recognized	6.25 ± 0.19	9.23 ± 0.25	9.2	1.32	8.1	8.08 ± 0.21	1.51	difference in affinity of anti-PLA2R binding between conformations [6]: no difference in affinity; pH region where the transition in conformation occurred [7]: ~6.2 pH
YLNHIDHEIVEKDAWK [compound 4, Linker between CTLD1 and CTLD2]	0.085	–	–	–	–	–	–	–	–	–
YYATHCEPGWNPYNR [compound 5, Linker between CTLD1 and CTLD2]	0.032	–	–	–	–	–	–	–	–	–
